Literature values as cited in article PMC6160412.
Like-named read-outs stand apart in the source and are kept apart here.

Target: Neurexin-1β (+S4) (Mus musculus) (UniProt P0DI97)
Experiment: SPR

Neurexin-1β (+S4) (Mus musculus), sequence (P0DI97 47-392): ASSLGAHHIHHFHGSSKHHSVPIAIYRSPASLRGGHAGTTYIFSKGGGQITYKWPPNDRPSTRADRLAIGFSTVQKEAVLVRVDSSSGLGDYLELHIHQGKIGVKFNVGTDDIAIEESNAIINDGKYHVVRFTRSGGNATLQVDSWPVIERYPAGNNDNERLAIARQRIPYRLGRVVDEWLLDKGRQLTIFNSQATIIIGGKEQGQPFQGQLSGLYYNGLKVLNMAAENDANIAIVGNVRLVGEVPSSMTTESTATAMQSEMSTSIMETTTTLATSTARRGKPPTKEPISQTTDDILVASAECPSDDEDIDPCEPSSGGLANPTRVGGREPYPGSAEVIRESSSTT
Neuroligin-1, sequence (Q99K10 46-843): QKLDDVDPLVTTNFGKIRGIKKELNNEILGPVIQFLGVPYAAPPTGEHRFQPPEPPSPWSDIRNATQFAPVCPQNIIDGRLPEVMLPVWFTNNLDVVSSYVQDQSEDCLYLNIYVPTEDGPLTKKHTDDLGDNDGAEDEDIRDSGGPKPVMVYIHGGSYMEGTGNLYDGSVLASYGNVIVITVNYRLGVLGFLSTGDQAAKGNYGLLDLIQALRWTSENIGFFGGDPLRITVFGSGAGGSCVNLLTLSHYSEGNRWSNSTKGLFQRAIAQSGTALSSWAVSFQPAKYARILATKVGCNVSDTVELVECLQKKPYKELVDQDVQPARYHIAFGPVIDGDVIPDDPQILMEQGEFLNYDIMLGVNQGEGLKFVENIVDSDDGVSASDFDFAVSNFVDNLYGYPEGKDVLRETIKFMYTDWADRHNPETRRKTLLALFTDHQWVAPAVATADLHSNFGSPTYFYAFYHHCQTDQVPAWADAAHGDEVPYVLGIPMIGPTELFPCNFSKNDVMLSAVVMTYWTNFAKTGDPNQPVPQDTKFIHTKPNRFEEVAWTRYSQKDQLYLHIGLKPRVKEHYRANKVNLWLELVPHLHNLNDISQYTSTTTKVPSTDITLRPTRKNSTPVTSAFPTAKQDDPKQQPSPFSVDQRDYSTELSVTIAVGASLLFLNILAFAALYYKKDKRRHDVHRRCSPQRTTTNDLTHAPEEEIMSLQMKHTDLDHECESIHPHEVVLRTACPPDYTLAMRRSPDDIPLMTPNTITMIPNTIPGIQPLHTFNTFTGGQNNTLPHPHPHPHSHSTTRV

Row | Substance | Kd [nM] | Kd (record 2) [nM]
1 | Neuroligin-1 (from UniProt Q99K10) | 700 | 2600
2 | Neuroligin-4 (from UniProt Q8N0W4) | 2500 | 9700
